We go through seven molecules from US6747136 (KAROLINA INNOVATIONS, dated 2004).

For test [1], the target named is T1, recombinant conformational HCV E2 antigen (HCV genotype 1a) (hepatitis C virus, HCV1 (genotype 1a), UniProt P26664 383-715).
The target of test [2] is T1, recombinant conformational HCV E2 …. The source holds these as a separate data set.
For test [3] the target is unchanged. Kind of test: inhibition ELISA: coated E2 1a, soluble E2 as inhibitor. (ELISA stands for enzyme-linked immunosorbent assay.)
For test [4], the target named is T2, HCV E2 antigen (HCV genotype 1b) (hepatitis C virus genotype 1b).
T2 construct: also called E2 1b; E2 antigen of genotype 1b
Kind of test: NOB assay: Fab pre-mixed with E2 1b, E2 binding to MOLT-4 cells by flow cytometry; 50% reduction titer, Exp. II.

In test [5] the target is T3, bovine serum albumin (bovine, UniProt P02769 25-607).
T3 construct: also called BSA
Kind of test: ELISA, coated BSA 5 ug/ml.

Test [6] has as its target T3, bovine serum albumin. Kind of test: ELISA, […] (100 ug/ml) […].
Test [7] has as its target T1, recombinant conformational HCV E2 …. The test is described as follows: ELISA, […] (100 ug/ml) […].
Test [8] concerns the target recombinant HCV E1/E2 complex antigen (hepatitis C virus, HCV1, UniProt P26664 192-383; P26664 384-746). The test is described as follows: ELISA, […] (100 ug/ml) […].

Several values for one entry are separate records, joined by “and”; a condition that tells them apart may be missing. Equal entries are not always repeated.

T3 sequence (P02769 25-607 limits assumed): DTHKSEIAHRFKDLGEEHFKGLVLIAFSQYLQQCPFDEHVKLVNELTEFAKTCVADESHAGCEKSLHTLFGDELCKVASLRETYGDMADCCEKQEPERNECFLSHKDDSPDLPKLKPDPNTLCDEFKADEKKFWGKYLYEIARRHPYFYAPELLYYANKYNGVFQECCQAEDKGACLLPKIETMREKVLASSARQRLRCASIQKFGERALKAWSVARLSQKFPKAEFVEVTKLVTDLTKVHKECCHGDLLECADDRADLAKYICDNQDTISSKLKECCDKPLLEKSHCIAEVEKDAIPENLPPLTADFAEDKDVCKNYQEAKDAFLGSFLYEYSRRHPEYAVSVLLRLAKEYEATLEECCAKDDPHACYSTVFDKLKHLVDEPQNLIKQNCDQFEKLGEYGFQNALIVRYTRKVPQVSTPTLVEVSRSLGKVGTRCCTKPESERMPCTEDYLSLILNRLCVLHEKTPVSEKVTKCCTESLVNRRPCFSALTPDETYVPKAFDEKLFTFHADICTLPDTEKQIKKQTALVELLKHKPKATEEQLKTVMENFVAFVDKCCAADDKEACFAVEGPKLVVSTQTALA
T1 sequence (P26664 383-715): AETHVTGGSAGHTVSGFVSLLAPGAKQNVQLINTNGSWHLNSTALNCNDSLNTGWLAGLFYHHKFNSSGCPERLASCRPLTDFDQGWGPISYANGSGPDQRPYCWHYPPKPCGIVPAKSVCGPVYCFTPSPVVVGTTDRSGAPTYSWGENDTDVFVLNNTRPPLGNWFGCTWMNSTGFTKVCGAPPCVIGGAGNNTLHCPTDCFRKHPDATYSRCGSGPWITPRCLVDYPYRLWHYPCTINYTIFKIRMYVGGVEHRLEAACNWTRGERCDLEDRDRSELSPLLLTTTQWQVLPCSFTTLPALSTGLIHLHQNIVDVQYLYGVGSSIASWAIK
recombinant HCV E1/E2 complex antigen, sequence (P26664 192-383 limits assumed, chain 1 of 2): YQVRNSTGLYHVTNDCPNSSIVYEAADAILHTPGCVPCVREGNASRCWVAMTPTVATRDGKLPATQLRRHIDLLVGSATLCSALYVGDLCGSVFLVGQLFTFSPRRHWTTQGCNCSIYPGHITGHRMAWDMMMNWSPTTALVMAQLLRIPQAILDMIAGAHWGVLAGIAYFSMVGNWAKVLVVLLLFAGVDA
recombinant HCV E1/E2 complex antigen, sequence (P26664 384-746 limits assumed, chain 2 of 2): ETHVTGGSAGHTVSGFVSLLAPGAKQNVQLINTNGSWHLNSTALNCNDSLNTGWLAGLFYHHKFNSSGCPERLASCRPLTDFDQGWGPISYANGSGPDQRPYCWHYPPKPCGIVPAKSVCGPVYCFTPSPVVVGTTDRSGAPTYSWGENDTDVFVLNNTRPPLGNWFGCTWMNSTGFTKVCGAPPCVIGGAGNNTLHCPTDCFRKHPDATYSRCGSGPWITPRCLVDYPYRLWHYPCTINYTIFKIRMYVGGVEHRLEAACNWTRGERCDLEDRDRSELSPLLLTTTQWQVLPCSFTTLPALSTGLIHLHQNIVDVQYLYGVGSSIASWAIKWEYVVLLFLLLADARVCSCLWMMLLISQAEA

B1: Fab molecule clone A12 (Fab, V domains shown)
VH: EVQLLESGSEVKKPGSSVKVSCRASGGSFRSYNFNWVRQAPGQGLEWMGGIIPMFGTANYAQKFQGRVTITADESTATGYMELSSLRSEDTAVYYCAMPYPKHCSRGSCWGWFDPWGQGTLVTVSS
VL: AELTQSPGTLSLSPGERATLSCRASQSLSSKYLAWYQQKPGQAPRLFIYDASSRATGIPDRFSGSGSGTDFTLSISRLEPEDFAVYYCQQYGTPRTFGQGTKVEIK
Regarding B1, in test [1], the Kd was around 100 nM. Also, the IC50 in test [2] came out at 0.1 µg/mL. Moreover, the Ka in test [3] was around 1e+07 M⁻¹.

B2: Fab molecule clone L1 (Fab, V domains shown)
VH: EVQLLESGGGVVQPGRSLRLSCAASGFTFSAYGMHWVRQAPGKGLEWVAGIWFDGSNQYYSDSVKGRFTVSRDNSRNTLFLQMNSLRPEDTAVYYCATEVLFGSIKGRYYLENWGQGTLVTVSS
VL: AELTQSPGTLSLSVGERATLSCRASQNIYSGYLGWYQQKPGQPPRLLIYGASNRATGIPDRFSGSGSGTDFTLTISRLESEDFAVYYCQQYGSPPYTFGQGTKVEIK
notes: also called Ll
With B2, in test [1], the Kd is around 28 nM. In addition, the IC50 in test [2] was 0.02 µg/mL and 0.03 µg/mL; in test [4] it was 0.03 µg/mL. Moreover, the Ka in test [3] is around 4e+07 M⁻¹.

B3: Fab molecule clone 1:5 (Fab, V domains shown)
VH: VQLLEQSGAEVRKPGSSVKVSCKASGGTFSGHVITWVRQAPGQGLEWMGESIPIFGSANYAQNYAQKFRDRVSIIADESTSTSFIELSNLRSDDTAVYYCARDPPRYCSAGRCYPGFFQQWGQGTLVTVSS
VL: AELTQSPGTLSLSPGERATLSCRASQSVSSNYLAWYQQRPGQAPRLLIYGASSRATGIPDRFSGSGSGTDFTLTISRLEPEDFAVYYCQLYGNSRWTFGQGTKVEIK
Take B3: the dissociation constant (Kd) in test [1] is above 100 nM. Further, the IC50 in test [2] is 1.5 µg/mL and 2.5 µg/mL. The binding result in the test with bovine serum albumin [5] is “no binding”. Further, the Ka in test [3] is below 1e+07 M⁻¹.

B4: Fab molecule clone 1:11 (Fab, V domains shown)
VH: VQLLEQSGAEVKKPGSSVKVSCKASGGTFSGHVISWVRQAPGQGLEWMGGSISFFGTSNSAQKFQGRVSITADESASTAYMELSSLRSEDTAIYYCAKDPPRFCSGGNCYPGFFQQWGQGTLVTVSS
VL: AELTQSPGTLSLSPGERATLSCGASQSVRSNYLAWYQQKPGQAPRLLIYGVSSRATGIPDRFSGSGSGTDFTLTISRLEPEDFAVYYCQQYGSSPRTFGQGTKLEIK
For the molecule B4, the Kd in test [1] is around 28 nM. Besides, the Ka in test [3] was around 4e+07 M⁻¹.

B5: Fab molecule clone L3 (Fab, V domains shown)
VH: EVQLLESGGGVVQPGRSLRLSCAASGFTFKTYGMHWVRQAPGKGLEWVAGISFDGSNQYYADSVKGRFIVSRDNSRDTVFLQMSSLRLEDTAVYYCATEGSPFGSIKGRYYLENWGQGTLVTVSS
VL: AELTQSPATLSVSPGERASLSCRASQSVGNNLAWYQQKPGQAPRLLIYGGNTRATGTPDRFSGSGSGTEFTLTISSLQSEDFAVYFCQHYSTWPLTFGGGTKVEFK
Regarding B5, the Kd in test [1] was around 28 nM. The IC50 in test [2] is 0.02 µg/mL. In addition, the binding result with bovine serum albumin [5] was “no binding”. The “OD405 nm (ELISA reactivity)” value was 0.089 OD405 nm with bovine serum albumin [6], 1.7 OD405 nm in test [7] and 2.46 OD405 nm in test [8]. Besides, in test [3], the Ka is around 4e+07 M⁻¹.

B6: Fab molecule clone A8 (Fab, V domains shown)
VH: EVQLLESGPGLVKPSGTLSLTCTVSGGSIRSSHWWSWVRQPPGKGLEWIGEVFFSGSTIYNPSLNDRVFMSVDKSKDQVSLRLSSVTAADTAVYYCARSPIKMNQGRMMLDAFDIWGQGTLVIVSS
VL: AELTQSPSSLSAFVGDRVTITCRASQSISRNLNWYQQKPGTAPKVLIYAASSLQSGVPSRFSGSGSGTDFTLTITSLQPEDFATYYCQQSYTTPRTFGQGTKVEVK
In the case of B6, in test [1], the Kd is around 6 nM. Moreover, in test [2], the IC50 is 0.001 µg/mL. Further, the Ka in test [3] was around 2e+08 M⁻¹.

B7: Fab molecule clone 1:7 (Fab, V domains shown)
VH: VQLLEQSGAEVKKPGSSVKVSCQVFGDTFSRYTIQWLRQAPGQGPEWMGNIIPVYNTPNYAQKFQGRLSITADDSTSTAYMELSSLRSEDTAVYFCARVVIPNAIRHTMGYYFDYWGQGTLVTVSS
VL: AELTQSPATLSLSPGERATLSCRASQSVNKYLAWYQQKPGQAPRLLIYDASNRATGIPARFSGSGSGTDFTLTISNLEPEDFAVYYCQQRSDWVTFGGGTKVEIK
For the molecule B7, the Kd in test [1] is around 6 nM. The IC50 in test [2] is 0.02 µg/mL and 0.01 µg/mL. The binding result with bovine serum albumin [5] is recorded as “no binding”. Further, the “OD405 nm (ELISA reactivity)” value in the test with bovine serum albumin [6] is 0.006 OD405 nm; in test [7], above 3 OD405 nm; in test [8], above 3 OD405 nm. Besides, the Ka in test [3] was around 2e+08 M⁻¹.

In general, Kd refers to the constant that tells how readily two partners part at equilibrium. The term IC50 denotes the concentration that inhibits the measured activity by half.
